From patent US10858396B2, “HER2 peptide regents and methods” (THE REGENTS OF THE UNIVERSITY OF MICHIGAN, priority 2015, dated 2020)
Entries after “also recorded” stand apart in the source; their conditions may differ. Ends that are not written are not given here.

Experiments:
HER2-mediated signaling = experiment: Effect of HER2 peptide on cell signaling (western blot); type: cell-based, human; conditions: 48 hours
Procedure: SKBR3 cells are commonly used to evaluate HER2 signaling, and were grown in 6 well plates to ˜60% confluence. Unlabeled KSP* peptide was added to separate wells at concentrations of 5 and 100 μM. Lapatinib, a tyrosine kinase inhibitor, was used as a positive control and was added in concentrations of 1, 25, 100 and 1000 nM. Lapatinib stock solution starting at 1 mg/mL was diluted in DMSO and PBS. 1% DMSO treated cells and untreated cells were used as control. After 48 hours following treatment, the cells were harvested for western blot analysis. Anti-HER2 antibody (Cell Signaling, #2165), phospho-HER2/ErbB2 (Tyr1248) antibody (Cell Signaling, #2247), anti-AKT (Cell Signaling, #4691P), anti-ERK1/2 (Cell Signaling, #4695P), anti-phospho-AKT (pS473), (Cell Signaling, #4060P), anti-phospho-ERK1/2 (Cell Signaling, #4370P) and anti-tubulin (Invitrogen, #32-2600) were used per manufacturer's instructions.

HER2 [1] = molecular target: T1, HER2 (Homo sapiens, UniProt P04626); experiment: Competition for peptide reagent binding with unlabeled KSP* on HT29 cells; set-up: host or cells: HT29; conditions: unlabeled KSP* 0, 10, 25, 50, 100 μM, then 2 μM KSP*-Cy5.5
Procedure: Specific binding of KSP*-Cy5.5 to HT29 cells was validated on competitive inhibition with unlabeled KSP* peptide reagent. ˜7500 HT29 cells were grown to ˜70% confluence on cover slips in triplicate. Unlabeled KSP* peptide at 0, 10, 25, 50, and 100 μM were added and incubated with the cells for 30 min at 4° C. The cells were washed 3× with PBS, and further incubated with 2 μM of KSP*-Cy5.5 for another 30 min at 4° C. The cells were washed 3× with PBS and fixed with 4% PFA for 10 min. The cells were washed with PBS and mounted with ProLong Gold reagent containing DAPI (Invitrogen). Confocal fluorescence images were collected at each concentration, and intensities from 3 independent images were quantified using custom Matlab (Mathworks) software.

HER2 [2] = molecular target: T1, HER2; experiment: Confocal microscopy of FITC-labeled candidate peptides binding to Flo1-HER2 and Q-hTERT (control) cells; type: cell-based; conditions: FITC-labeled peptide 10 μM, Flo1-HER2 relative to Q-hTERT cells
Procedure: Flo-1-Her2 and Q-hTERT cells were seeded with ˜7,500 cells in 12-well plates with 1.5 mm thick glass cover slides, and grown to ˜70% confluence. The cells were gently washed with cold PBS before adding the peptide. 10 μM of FITC-labeled peptide was added to each well and incubated at 4° C. for 1 hour. After incubation, the cells were washed 3× with PBS, fixed in ice-cold 4% PFA for 10 min, and washed 1× with PBS. Subsequently, the cells were embedded on microscope slides with ProLong Gold reagent containing DAPI (Invitrogen), and the slides where analyzed with a Leica TCS SP5 confocal microscope using 63× oil immersion objective (Leica Microsystems, Leider Lane IL). The FITC-labeled peptides and anti-HER2 antibody were tested in quadruplicate.

[3] = molecular target: T2, colonic adenomas that over express HER2 (Mus musculus, UniProt P70424); experiment: In vivo endoscopic NIR imaging of mouse colonic adenomas, topical peptide reagent; conditions: CPC;Apc mice
T2 construct: validate over expression of HER2 in mouse colonic dysplasia; from tissue; host or cells: colonic adenomas / colon of CPC;Apc mice (in vivo, excised colon, fixed sections)
Procedure: Mouse imaging studies were performed with approval of the University of Michigan Committee on the Use and Care of Animals (UCUCA). The mice were housed in pathogen-free conditions and supplied water ad libitum under controlled conditions of humidity (50±10%), light (12/12 hour light/dark cycle) and temperature (25° C.). Anesthesia was induced and maintained via a nose cone with inhaled isoflurane mixed with oxygen at a concentration of 2-4% at a flow rate of ˜0.5 L/min. The colon was first rinsed with tap water to remove mucous and debris. White light illumination was used first to identify anatomic landmarks, including polyps, mucosal folds, colonic segment, and distance of endoscope tip from anus, to register the in vivo images with histology. […] During imaging, we recorded the 1) distance between the endoscope tip and the anus and 2) clockwise location of each region of high intensity. […]
White light and fluorescence videos were exported in avi format with 24 (RGB) and 8 (grayscale) bit digital resolution for the color and fluorescence images, respectively. […] On the fluorescence images, 3 regions of interest (ROI) with dimensions of 25×25 pixels were picked to represent a range of staining for normal and diseased tissues and averaged. The mean intensities within these ROI were determined to calculate the target to-background (T/B) ratio.

HER2 [4] = molecular target: T1, HER2; experiment: Confocal fluorescence microscopy of peptide reagent binding to HT29 and SW480 cells; type: cell-based; set-up: host or cells: HT29, SW480; conditions: 5 μM, 30 min at 4° C.
Procedure: Cells were washed with PBS and incubated with 5 μM of KSP*-Cy5.5 and PPS*-Cy5.5 for 30 min at 4° C. The cells were then washed 3× in PBS, fixed with ice cold 4% paraformaldehyde (PFA) for 10 min, washed 1× with PBS, and then mounted on glass slides with ProLong Gold reagent containing DAPI (Invitrogen). Confocal fluorescence images were collected with Cy5.5, and DAPI filters (Leica Inverted SPSX Confocal Microscope System). For antibody staining, the cells were pre-fixed with cold methanol for 10 min at −20° C. and blocked with 2% BSA for 30 min at RT. Cells were incubated with 1:450 dilution of anti HER2 antibody overnight at 4° C. The cells were washed 3× with PBS and processed for secondary staining. Goat-anti rabbit Alexa-Fluor 488 (AF488) was added to the cells and incubated for 1 hour at RT. Cells were further washed 3× with PBS and mounted onto glass cover slips. Fluorescence intensities from 3 independent images were quantified using custom Matlab (Mathworks) software.

[5] = molecular target: T3, HER2 over expressed by mouse colonic dysplasia (Mus musculus, UniProt P70424); experiment: Peptide reagent immunofluorescence on mouse colonic adenoma sections; conditions: 2 μM, 10 min at RT, confocal microscopy
T3 construct: validate over expression of HER2 in mouse colonic dysplasia; from tissue; host or cells: colonic adenomas / colon of CPC;Apc mice (in vivo, excised colon, fixed sections)
Procedure: Specimens of mouse colonic adenoma were formalin fixed and processed, as described previously. Serial 5 μm sections were incubated with 2 μM of each peptide for 10 min at RT. The sections were washed 3× with PBS, and mounted with Prolong Gold reagent containing DAPI (Invitrogen). Adjacent sections were processed for histology (H&E).

ErbB2 (HER2) = molecular target: T4, ErbB2 (HER2) (Homo sapiens, UniProt P04626); experiment: Staining of FFPE human Barrett's esophagus specimens with peptide reagents; conditions: excised human specimens, 5 μM, 10 min
T4 construct: specimens of human esophagus were obtained from an archived tissue bank; from tissue; host or cells: FFPE human esophagus (SQ, BE, LGD, HGD, EAC)
Procedure: Formalin-fixed, paraffin-embedded (FFPE) specimens of human esophagus were obtained from an archived tissue bank. 5 μm thick sections were cut, and mounted onto glass slides (Superfrost Plus, Fischer Scientific). The tissues were deparaffinized, and antigen retrieval was performed. The sections were blocked with protein serum for 15 min at room temperature followed by rinsing with PBS. The sections were then stained with either KSP*-Cy5.5 or RHP*-Cy5.5 at 5 μM concentration for 10 min at room temperature. The sections were then washed 3× for 3 min with PBS and further incubated with anti-HER2 antibody overnight at 4° C. Sections were washed 3× with PBST and mounted with Prolong Gold reagent containing DAPI (Invitrogen) using #1 cover glass ([…]).

T2 sequence (P70424 23-1256): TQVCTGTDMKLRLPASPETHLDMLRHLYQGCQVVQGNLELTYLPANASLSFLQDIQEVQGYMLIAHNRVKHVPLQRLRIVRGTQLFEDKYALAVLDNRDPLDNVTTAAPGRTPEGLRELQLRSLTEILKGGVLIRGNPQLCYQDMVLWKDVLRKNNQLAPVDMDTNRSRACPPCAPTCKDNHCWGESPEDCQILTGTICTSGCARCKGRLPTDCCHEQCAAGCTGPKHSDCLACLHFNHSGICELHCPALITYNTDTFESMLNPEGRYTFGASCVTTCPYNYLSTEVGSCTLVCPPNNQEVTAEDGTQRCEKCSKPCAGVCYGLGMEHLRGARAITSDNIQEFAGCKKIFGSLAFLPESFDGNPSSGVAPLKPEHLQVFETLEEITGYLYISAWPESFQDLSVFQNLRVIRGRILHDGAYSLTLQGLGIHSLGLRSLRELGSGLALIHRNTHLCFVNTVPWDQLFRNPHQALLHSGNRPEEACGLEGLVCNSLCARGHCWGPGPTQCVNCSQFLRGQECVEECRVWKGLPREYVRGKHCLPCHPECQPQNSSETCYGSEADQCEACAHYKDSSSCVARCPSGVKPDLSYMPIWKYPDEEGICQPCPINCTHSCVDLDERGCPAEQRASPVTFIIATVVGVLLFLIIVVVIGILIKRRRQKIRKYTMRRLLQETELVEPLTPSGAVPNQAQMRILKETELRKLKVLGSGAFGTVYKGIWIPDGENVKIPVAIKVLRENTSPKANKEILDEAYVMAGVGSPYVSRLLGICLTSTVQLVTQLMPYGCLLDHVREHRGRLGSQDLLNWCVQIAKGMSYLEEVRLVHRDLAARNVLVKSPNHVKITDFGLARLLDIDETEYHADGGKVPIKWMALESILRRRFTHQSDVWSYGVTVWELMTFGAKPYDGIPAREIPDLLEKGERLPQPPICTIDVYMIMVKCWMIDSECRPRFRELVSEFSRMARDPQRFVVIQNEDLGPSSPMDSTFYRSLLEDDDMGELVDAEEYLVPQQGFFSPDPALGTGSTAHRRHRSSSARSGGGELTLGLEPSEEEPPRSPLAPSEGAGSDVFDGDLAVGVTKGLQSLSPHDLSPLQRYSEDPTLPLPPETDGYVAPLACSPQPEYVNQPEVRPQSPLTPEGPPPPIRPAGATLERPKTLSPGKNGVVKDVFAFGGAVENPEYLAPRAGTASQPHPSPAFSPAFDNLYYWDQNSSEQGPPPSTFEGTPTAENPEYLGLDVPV
T3 sequence (P70424 23-1256): as above

For `CS(=O)(=O)CCNCc1ccc(-c2ccc3ncnc(Nc4ccc(OCc5cccc(F)c5)c(Cl)c4)c3c2)o1` [lapatinib], the “phosphorylation of HER2 (p-HER2), AKT (p-AKT) and ERK (p-ERK)” value (HER2-mediated signaling; 1 to 1000 nM) was “reduced expression; also recorded: dose dependent reduction”.

“KSP*: unlabeled KSP* peptide (KSPNPRF without Cy5.5 fluorophore)” was tested, and the “fluorescence intensity of KSP*-Cy5.5 on competition with unlabeled peptide” value (HER2 [1]) was “decrease significantly in a concentration dependent manner” and the “phosphorylation of HER2 (p-HER2), AKT (p-AKT) and ERK (p-ERK)” value (HER2-mediated signaling; 5 and 100 μM) was “no change; also recorded: no reduction”.

With “KSPNPRF (also: FITC label, site not given here) [HER2-specific peptide; FITC-labeled for candidate selection]” the “mean fluorescence intensity compared with other peptide candidates” value (HER2 [2]) was “highest mean fluorescence intensity”.

In the case of “PPS*-Cy5.5: scrambled control peptide PPSNFKR linked to Cy5.5 via GGGSK (PPSNFKRGGGSK-{Cy5.5-NH2}; also: Cy5.5 attached via GGGSK linker, end not given here)”, the “mean (±std) T/B ratio” value ([3]; topical 100 μM, 5 min incubation, adenomas) is reported as 1.46±0.25, the “NIR fluorescence signal from polyp / flat adenoma” value ([3]; topical administration) is reported as “Minimal signal; also recorded: significantly reduced signal” and the “binding to cell surface on confocal microscopy” value (HER2 [4]) is reported as “minimal binding”. The “staining of normal mouse colonic mucosa” value [5] was “Minimal staining” and the “staining with cancer progression in Barrett's esophagus (SQ, BE, LGD, HGD, EAC)” value (ErbB2 (HER2)) was “Minimal staining”.
